Measurements reported in publication PMC4340053, “The DEAH-box Helicase Dhr1 Dissociates U3 from the Pre-rRNA to Promote Formation of the Central Pseudoknot” (PLoS Biology, 2015).

Substrate: Nc1ncnc2c1ncn2[C@@H]1O[C@H](COP(=O)(O)OP(=O)(O)OP(=O)(O)O)[C@@H](O)[C@H]1O
Experiment: purified protein
Type: biochemical, Saccharomyces cerevisiae
Details: poly(A) RNA present, equimolar MgCl2, pH 8.0, room temperature

B1: Dhr1 (Ecm16) (Saccharomyces cerevisiae S288C) (protein)
chain: MGTYRKRFNEKARSGHMAKLKELKRIRNKQFTRQDENDERVENPDSAPAESSTTEPNANAEILEPLTEEEKKMKKRKLQELFTPKESKVSRLKKKRLDKFIEHQLKREERKTIIGKLQDYKIDTSLLTSSKRLGEGRQTKKEEFKEALSLERQGRGNEQTNEILYEEYEPKVWDEYGEGGSSEDDDGEDDFEASFGSMPKPTDNEEKKSSGFIDHRPAKFGGSGLSFGFSNIKVINKESKTPKKKYNWRQRVEMEELKKHGKEDEMDFDTTSEDDDEEEDQEEEDKMHPSENPLEEVESADSETGSEKFDQNDVANEFKDWANQEIKKLEGRDQELVTPTLNIDYKPIIRKEDLDDGLQEAYVPINENSTRKAFYVEVSRSDEIQKARIQLPVFGEEHKIMEAIHHNDVVIICGETGSGKTTQVPQFLYEAGFGAEDSPDYPGMVGITQPRRVAAVSMAERVANELGDHGHKVGYQIRFDSTAKEDTKVKFMTDGVLLREMMHDFKLTKYSSIIIDEAHERNINTDILIGMLSRCVRLRAKLHKENPIEHKKLKLIIMSATLRVSDFSENKTLFPIAPPVLQVDARQFPVSIHFNRRTAFNYTDEAFRKTCKIHQKLPPGAILVFLTGQQEITHMVKRLRKEFPFKKNSKYNKDLETPVSKMGINSKTTDLEAEDIDFSVQVIDQDKFKSAIRYEEDEGNSGNGEDEEDEEEEGFEEVLTEGQTANDPLYVLPLYSLLPTKEQMRVFQKPPQGSRLCIVATNVAETSLTIPGVRYVVDSGRSKERKYNESNGVQSFEVGWVSKASANQRSGRAGRTGPGHCYRLYSSAVFEHDFEQFSKPEILRMPVESIVLQMKSMAIHNIINFPFPTPPDRVALSKAIQLLQYLGALDNKEMITEDGKKMSLFPLSPRFSKMLLVSDEKACLPYIVAIVSALSVGDPFINEFELGINEISRKPNPDENLDDKIREHDESTPGMDPELKKELRSKFYKSRSQFSKLDKFSDVFRLLSVVSAMDYVPKEQKEIFMKKNFLRGKLMEEIVKLRKQLMYIIKSNTSKENIAVVIRNEDLKSDIPSVIQIKLLKQMICAGFVDHVAVRADVLFPDDAKITNRTSIINIPYIPVLATRTPNIEDCFVYIHPTSILNNLGEMPPKYMLYYSLHLGGNNKTRMNTLCDIASTPLANIARKGLLLTYSKPLTGQGLKTVNLSPTERYCYVVPRFGSTVDNDLKIGWDLNPIAVHQKKQKGQWTVIKFITRKGFQTITGEEKEKK
notes: full-length with C-terminal Leu-Glu-6xHis (pAJ2312), tag kept; expressed in E. coli BL21 Star (DE3), RNase-treated, Ni-NTA and SP HiTrap
What does the source list for B1?
Km: 106 µM; kcat: 0.217 s⁻¹

B2: Dhr1 (Ecm16) (Saccharomyces cerevisiae S288C; K420A) (protein)
chain: MGTYRKRFNEKARSGHMAKLKELKRIRNKQFTRQDENDERVENPDSAPAESSTTEPNANAEILEPLTEEEKKMKKRKLQELFTPKESKVSRLKKKRLDKFIEHQLKREERKTIIGKLQDYKIDTSLLTSSKRLGEGRQTKKEEFKEALSLERQGRGNEQTNEILYEEYEPKVWDEYGEGGSSEDDDGEDDFEASFGSMPKPTDNEEKKSSGFIDHRPAKFGGSGLSFGFSNIKVINKESKTPKKKYNWRQRVEMEELKKHGKEDEMDFDTTSEDDDEEEDQEEEDKMHPSENPLEEVESADSETGSEKFDQNDVANEFKDWANQEIKKLEGRDQELVTPTLNIDYKPIIRKEDLDDGLQEAYVPINENSTRKAFYVEVSRSDEIQKARIQLPVFGEEHKIMEAIHHNDVVIICGETGSGATTQVPQFLYEAGFGAEDSPDYPGMVGITQPRRVAAVSMAERVANELGDHGHKVGYQIRFDSTAKEDTKVKFMTDGVLLREMMHDFKLTKYSSIIIDEAHERNINTDILIGMLSRCVRLRAKLHKENPIEHKKLKLIIMSATLRVSDFSENKTLFPIAPPVLQVDARQFPVSIHFNRRTAFNYTDEAFRKTCKIHQKLPPGAILVFLTGQQEITHMVKRLRKEFPFKKNSKYNKDLETPVSKMGINSKTTDLEAEDIDFSVQVIDQDKFKSAIRYEEDEGNSGNGEDEEDEEEEGFEEVLTEGQTANDPLYVLPLYSLLPTKEQMRVFQKPPQGSRLCIVATNVAETSLTIPGVRYVVDSGRSKERKYNESNGVQSFEVGWVSKASANQRSGRAGRTGPGHCYRLYSSAVFEHDFEQFSKPEILRMPVESIVLQMKSMAIHNIINFPFPTPPDRVALSKAIQLLQYLGALDNKEMITEDGKKMSLFPLSPRFSKMLLVSDEKACLPYIVAIVSALSVGDPFINEFELGINEISRKPNPDENLDDKIREHDESTPGMDPELKKELRSKFYKSRSQFSKLDKFSDVFRLLSVVSAMDYVPKEQKEIFMKKNFLRGKLMEEIVKLRKQLMYIIKSNTSKENIAVVIRNEDLKSDIPSVIQIKLLKQMICAGFVDHVAVRADVLFPDDAKITNRTSIINIPYIPVLATRTPNIEDCFVYIHPTSILNNLGEMPPKYMLYYSLHLGGNNKTRMNTLCDIASTPLANIARKGLLLTYSKPLTGQGLKTVNLSPTERYCYVVPRFGSTVDNDLKIGWDLNPIAVHQKKQKGQWTVIKFITRKGFQTITGEEKEKK
notes: as for B1
What does the source list for B2?
Km: 1000 µM; kcat: 0.05 s⁻¹

B3: Dhr1 (Ecm16) (Saccharomyces cerevisiae S288C; D516A/E517A) (protein)
chain: MGTYRKRFNEKARSGHMAKLKELKRIRNKQFTRQDENDERVENPDSAPAESSTTEPNANAEILEPLTEEEKKMKKRKLQELFTPKESKVSRLKKKRLDKFIEHQLKREERKTIIGKLQDYKIDTSLLTSSKRLGEGRQTKKEEFKEALSLERQGRGNEQTNEILYEEYEPKVWDEYGEGGSSEDDDGEDDFEASFGSMPKPTDNEEKKSSGFIDHRPAKFGGSGLSFGFSNIKVINKESKTPKKKYNWRQRVEMEELKKHGKEDEMDFDTTSEDDDEEEDQEEEDKMHPSENPLEEVESADSETGSEKFDQNDVANEFKDWANQEIKKLEGRDQELVTPTLNIDYKPIIRKEDLDDGLQEAYVPINENSTRKAFYVEVSRSDEIQKARIQLPVFGEEHKIMEAIHHNDVVIICGETGSGKTTQVPQFLYEAGFGAEDSPDYPGMVGITQPRRVAAVSMAERVANELGDHGHKVGYQIRFDSTAKEDTKVKFMTDGVLLREMMHDFKLTKYSSIIIAAAHERNINTDILIGMLSRCVRLRAKLHKENPIEHKKLKLIIMSATLRVSDFSENKTLFPIAPPVLQVDARQFPVSIHFNRRTAFNYTDEAFRKTCKIHQKLPPGAILVFLTGQQEITHMVKRLRKEFPFKKNSKYNKDLETPVSKMGINSKTTDLEAEDIDFSVQVIDQDKFKSAIRYEEDEGNSGNGEDEEDEEEEGFEEVLTEGQTANDPLYVLPLYSLLPTKEQMRVFQKPPQGSRLCIVATNVAETSLTIPGVRYVVDSGRSKERKYNESNGVQSFEVGWVSKASANQRSGRAGRTGPGHCYRLYSSAVFEHDFEQFSKPEILRMPVESIVLQMKSMAIHNIINFPFPTPPDRVALSKAIQLLQYLGALDNKEMITEDGKKMSLFPLSPRFSKMLLVSDEKACLPYIVAIVSALSVGDPFINEFELGINEISRKPNPDENLDDKIREHDESTPGMDPELKKELRSKFYKSRSQFSKLDKFSDVFRLLSVVSAMDYVPKEQKEIFMKKNFLRGKLMEEIVKLRKQLMYIIKSNTSKENIAVVIRNEDLKSDIPSVIQIKLLKQMICAGFVDHVAVRADVLFPDDAKITNRTSIINIPYIPVLATRTPNIEDCFVYIHPTSILNNLGEMPPKYMLYYSLHLGGNNKTRMNTLCDIASTPLANIARKGLLLTYSKPLTGQGLKTVNLSPTERYCYVVPRFGSTVDNDLKIGWDLNPIAVHQKKQKGQWTVIKFITRKGFQTITGEEKEKK
notes: as for B1
Which Km does the source give for B3 here?
The Km was 136 µM.

What about the kcat of the same protein?
Its kcat is 0.03 s⁻¹.
